Here are results for 28 sequences from the supplement of paper PMC9170038.

In the series the test system is MS2 coat protein. Briefly: apparent KD of MS2 coat protein; designed switch direction (-1 OFF switch, 1 ON switch): 1; higher = weaker reporter binding. The method, boiled down:
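Designed RNA switches with common flanks were made on Illumina chips by stalled E. coli RNA polymerase. Titration with SNAP-549-labelled MS2 coat protein doubled from 0.7 or 1.5 nM up to 3 µM. Apparent KD is each design's median over clusters after curve-fitting normalised fluorescence.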

The mark [1] stands for this setting: input ligand: microRNA oligo, concentration not stated.
Setting [2] is: Eterna round: R95, input ligand: FMN 200 uM.
The mark [3] stands for this setting: Eterna round: R95, input ligand: microRNA oligo, concentration not stated.
Where [4] appears, read: Eterna round: R95, input ligand: none.

For the sequence “CUGAGCGAUCAAGGAUAUCACGUCGAAUAGACGUGAGAAGGUGAUCCAUACAUGAGGAUCACCCAUGUAUAACAUGAAGCUCAG [SSNG1/8-A1] (Eterna round: R96, puzzle: Same State NG 1)”, the “apparent KD of MS2 coat protein” value by setting is: (input ligand: FMN 200 uM) 794 nM; under setting [1], 21.6 nM; (input ligand: none) 404 nM.
The corresponding values for “CUGCUCGGGUGAGGAUAUGCCGCCGUUUCGGCUGCAGAAGGUGCUACGUUACAUGAGGAUCACCCAUGUCUCUGUUGUUUCGUG [salish99_SSNG1_r04_966] (Eterna round: R96, puzzle: Same State NG 1)” are 108 nM, 60.7 nM and 76 nM.
For “CUGCUCGGGUGAGGAUAUGCCGCCGUUUCGGCUGCAGAAGGUGCUACGUUACAUGAGGAUCACCCAUGUCUCUGUUGUUUCGUU [salish99_SSNG1_r04_965] (Eterna round: R96, puzzle: Same State NG 1)”, the “apparent KD of MS2 coat protein” value was 72.1 nM (input ligand: FMN 200 uM), 42.8 nM under setting [1] and 62.2 nM (input ligand: none).
For “CUGCUCGUGUGAGGAUAUGCCGCCGUUUCGGCUGCAGAAGGUGCUACGUUACAUGAGGAUCACCCAUGUCUCUGUUGUUUCGUC [salish99_SSNG1_r04_946] (Eterna round: R96, puzzle: Same State NG 1)”, the “apparent KD of MS2 coat protein” value (input ligand: FMN 200 uM) amounted to 25.6 nM, the “apparent KD of MS2 coat protein” value under setting [1] is 18.7 nM and the “apparent KD of MS2 coat protein” value (input ligand: none) stood at 31.3 nM.
On to “CUGUGUUGCGGGCAGGAUAUGUACUUGAGUACAUGAGGAUCACCCAUGUGCGGGUGUUUCACCCGACAGAAGGGCCAAUCGCGAC [JL-ss2-3.23 ViennaUCT mod] (puzzle: Same State 2)”, for which the “apparent KD of MS2 coat protein” value under setting [2] is 68.8 nM, the “apparent KD of MS2 coat protein” value under setting [3] is 311 nM and the “apparent KD of MS2 coat protein” value under setting [4] amounted to 1520 nM.
On to “CUGUGUUGCGGGCAGGAUAUGUAUUGGAAUACAUGAGGAUCACCCAUGUGCGGGUGUUUCACCCGACAGAAGGGCCAAUCGCGAC [JL-ss2-3.21 ViennaUCT mod] (puzzle: Same State 2)”, for which the “apparent KD of MS2 coat protein” value under setting [3] worked out at 266 nM.
Consider “CUUUAUCACUAUACAUGAGGAUCACCCAUGUUAUCAUCAUGAGAGGAUAUCGUAAUAGGAUUUUUCGAGAAGGCUCUAAAGUAU [JR_SSNG3_Sub078] (Eterna round: R96, puzzle: Same State NG 3)”, for which the “apparent KD of MS2 coat protein” value is, setting by setting: (input ligand: FMN 200 uM) 52.1 nM; under setting [1], 167 nM; (input ligand: none) 142 nM.
As to “GAAAUAAUGUAAGGAUAUACAUGAGGAUUUCUCGUAGAAGGUACAAGACAUGAGGAUCACCCAUGUGUCGCUCCGUAGAGCGUA [Mat - Same State NG 1 - JL mod - D14] (Eterna round: R96, puzzle: Same State NG 1)”, under setting [1], the “apparent KD of MS2 coat protein” value came to 125 nM.
In the case of “GAAUAGUUGAGAGGAUAUCUAUUAUUGUAGGAUAGAGAAGGUUUUAACAUGAGGAUCACCCAUGUAGGACUAUAUAUGUGAAUA [Parity 99 - Jieux - Same State NG 1] (Eterna round: R96, puzzle: Same State NG 1)”, the “apparent KD of MS2 coat protein” value was 14.2 nM (input ligand: FMN 200 uM), 12.5 nM under setting [1] and 15.3 nM (input ligand: none).
As for “GACAAGCAGGCUUUUUUCUCGUAGUGUAAACAUGAGGAUCACCCAUGUGCCCGCCCUGGAUCUUUGGAUCGCAGGAA [Onlari] (puzzle: Sensor for hsa-mir-208a)”, the “apparent KD of MS2 coat protein” value reads like this: under setting [2], 36.4 nM; under setting [3], 14.5 nM; under setting [4], 35.5 nM.
With “GACAAUCUAUCUGAGGAUAUCAUGAAUAAAACAUGAGGAUCACCCAUGUGCAGGAUAACUGCAAAUGAGAAGGCAGAUAGAUUGG [Mat - Same State 2 - Mod - D9] (puzzle: Same State 2)”, the “apparent KD of MS2 coat protein” value runs as follows: under setting [2], 9.21 nM; under setting [3], 20 nM; under setting [4], 18 nM.
For “GACAAUCUAUCUGAGGAUAUCAUGAGAAGAACAUGAGGAUCACCCAUGUGCAGGAAAACUGCAUAUGAGAAGGCAGAUAGAUUGG [Mat - Same State 2 - Mod - D17] (puzzle: Same State 2)”, the “apparent KD of MS2 coat protein” value runs as follows: under setting [2], 47.8 nM; under setting [3], 607 nM; under setting [4], 3570 nM.
Consider “GACCGCGAGGAAGGAUAUGGAGCCUUAAAGGCUCCAGAAGGUCCAUAAAGGACAUGAGGAUCACCCAUGUGGUGAGAAGCGGUC [Mat - Same State NG 1 - JL mod - D75] (Eterna round: R96, puzzle: Same State NG 1)”, for which, under setting [1], the “apparent KD of MS2 coat protein” value was determined as 711 nM.
For the sequence “GACCGCGAGGAAGGAUAUGGAGCCUUAUUGGCUCCAGAAGGUCCAUAAGGGACAUGAGGAUCACCCAUGUGGGUUGAAGCGGUC [Fiskers NG1ss - 35] (Eterna round: R96, puzzle: Same State NG 1)”, the “apparent KD of MS2 coat protein” value reads like this: (input ligand: FMN 200 uM) 24.6 nM; under setting [1], 140 nM; (input ligand: none) 160 nM.
For the sequence “GAGAGACAUGAGGAUCACCCAUGUAGAAUAGAACAAGGAUAUGUGGAAGGCGGAGGAGAGACAGAAGGUGUAGGAG [JR_SS1_Sub055] (puzzle: Same State 1)”, under setting [3], the “apparent KD of MS2 coat protein” value is 64 nM.
For “GAGAGAGGGUGAGGAUAUUCGGUGAUAAUGAUGGGAGAAGGCACAGACAUGAGGAUCACCCAUGUGGGAAUAAUCCAGAGAGAG [Parity 12 - Jieux - Same State NG 1] (Eterna round: R96, puzzle: Same State NG 1)”, the “apparent KD of MS2 coat protein” value by setting is: (input ligand: FMN 200 uM) 138 nM; under setting [1], 83 nM; (input ligand: none) 181 nM.
Take “GAGGAACAUGAGGAUCACCCAUGUGGGAUGGGACAAGGAUAUGUAGGUAGAGGAGAAGAGACAGAAGGUGUAGGAG [JR_SS1_Sub052] (puzzle: Same State 1)”: the “apparent KD of MS2 coat protein” value runs as follows: under setting [2], 349 nM; under setting [3], 232 nM; under setting [4], 660 nM.
In the case of “GAGGAUGAUUUACAGGAUAUAUAGCAGAUGACAUGAGGAUCACCCAUGUAAGAGAAAGGAGGGAGAUAGAAGGGUAUGGGAGGUG [JR_SS2_Sub038] (puzzle: Same State 2)”, the “apparent KD of MS2 coat protein” value under setting [2] stood at 29.3 nM, the “apparent KD of MS2 coat protein” value under setting [3] was found to be 35.4 nM and the “apparent KD of MS2 coat protein” value under setting [4] is 43.5 nM.
The corresponding values for “GAGGAUGAUUUACAGGAUAUAUAGGAGAUGACAUGAGGAUCACCCAUGUAGGAGAUAGGAGUGAGAUAGAAGGGUAAGUGAUGUG [JR_SS2_Sub43] (puzzle: Same State 2)” are 58.9 nM, 122 nM and 114 nM.
With “GAGGGAUGAGCGUAGGAUAUAGGAGAAGUGACAUGAGGAUCACCCAUGUGGUAUGAGGGAUGAUUCUAGAAGGACGCGGUAGAAG [JR_SS2_Sub063] (puzzle: Same State 2)”, the “apparent KD of MS2 coat protein” value reads like this: under setting [2], 149 nM; under setting [3], 399 nM; under setting [4], 373 nM.
Take “GAGGGCGAAAGCGACAUGAGGAUCACCCAUGUCCUCGGAGGGCAGGAUAUCCGGCAGUAGCCGAAGGAGAAGGGUCGAAAAGAA [AK SSNG3-V2-35.1] (Eterna round: R96, puzzle: Same State NG 3)”: the “apparent KD of MS2 coat protein” value by setting is: (input ligand: FMN 200 uM) 53.4 nM; under setting [1], 35.7 nM; (input ligand: none) 53.6 nM.
As to “GAGUAGUCAAAAGGAUAUUGAUUAUUGUAGGAUCAAGAAGGUUUUAACAUGAGGAUCACCCAUGUAGGACUAUUCCUGUGUAUC [Parity 91 - Jieux - Same State NG 1] (Eterna round: R96, puzzle: Same State NG 1)”, under setting [1], the “apparent KD of MS2 coat protein” value is 10.8 nM.
For “GAGUAGUUGAAAGGAUAUUGAUUAUUGUAGGAUCAAGAAGGUUUUAACAUGAGGAUCACCCAUGUAGGACUAUAUAUGUGAAUA [Parity 95 - Jieux - Same State NG 1] (Eterna round: R96, puzzle: Same State NG 1)”, the “apparent KD of MS2 coat protein” value is 12.2 nM (input ligand: FMN 200 uM), 12.3 nM under setting [1] and 16 nM (input ligand: none).
As to “GAGUAGUUGAAAGGAUAUUGAUUGUUGUAGGAUCAAGAAGGUUCUAACAUGAGGAUCACCCAUGUAGGACUAUUCCUGUGUAUC [Parity 86 - Jieux - Same State NG 1] (Eterna round: R96, puzzle: Same State NG 1)”, the “apparent KD of MS2 coat protein” value by setting is: (input ligand: FMN 200 uM) 8.27 nM; under setting [1], 8.09 nM; (input ligand: none) 11.9 nM.
“GAGUCAGAUCGAGGAUAUUUGUUAUGACGAUCCCACAUGAGGAUCACCCAUGUCCACGAUCCUCCAAAGAAGGUGAGGCUGGCG [Eternabot solution 32] (Eterna round: R96, puzzle: Same State NG 2)”: the “apparent KD of MS2 coat protein” value by setting is: (input ligand: FMN 200 uM) 202 nM; under setting [1], 39.6 nM; (input ligand: none) 88.2 nM.
Take “GAGUGACAUGAGGAUCACCCAUGUAGAAUAGAACAAGGAUAUGUGGAAGGCGGAGGAGAGACAGAAGGUGUUGGAG [JR_SS1_Sub056] (puzzle: Same State 1)”: the “apparent KD of MS2 coat protein” value runs as follows: under setting [2], 47.9 nM; under setting [3], 51.2 nM; under setting [4], 88 nM.
Take “GAGUGGAGGUAAGGAUAUAUAAUGAUAAUCACAGUAGAAGGUACUAACAUGAGGAUCACCCAUGUAGGACUAUACCAGAGAGGG [Parity 45 - Jieux - Same State NG 1] (Eterna round: R96, puzzle: Same State NG 1)”: the “apparent KD of MS2 coat protein” value under setting [1] was found to be 11.9 nM.
For “GAGUGGCAGUUAGGAUAUAUAGUGAUAAUCACAAUAGAAGGAACAGACAUGAGGAUCACCCAUGUAGGACUAAUCCAGAGAGAG [Parity 37 - Jieux - Same State NG 1] (Eterna round: R96, puzzle: Same State NG 1)”, the “apparent KD of MS2 coat protein” value by setting is: (input ligand: FMN 200 uM) 19.2 nM; under setting [1], 16.4 nM; (input ligand: none) 23.4 nM.
